Measured values from a protein production outcome set (Wang et al. 2014).

Experiment: label from the status in PepcDB records

With “GSPLLAPAFEPSLGPPPEGAPPTIEAWFSFRSPYSWLFMPRIRHLAQAYGATLELRPILPMVMRGLAVPRIKTIYITLDCKREAERVGLPFGRIVDPVGAGAERALAVLHHAMALGLGEQFAELGLKAAFADGIALAEDEGLYGVARRAGLTDAQTAAALADDSWRQRAETNRAALLEAGLWGAPTFRITGHQAHWGQDRLYMLEEDLRAAMQGAAAPR” the protein production was “failed”.
With “GSSGSSGDGTCTGAMPDGALDTAVCADEVGSEEDLYDDLHSSSHHYSHPGGGGEQLAINELISDGSVVCAEALWDHVTMDDQELGFKAGDVIEVMDATNREWWWGRVADGEGWFPASFVRLRVNQDEPADDDAPLAGNSGAEDGGAEAQSSKDQMRTNVINEILSTERDYIKHLRDICEGYVRQCRKRADMFSEEQLRTIFGNIEDIYRCQKAFVKALEQRFNRERPHLSELGACFLEHQADFQIYSEYCNNHPNACVELSRLTKLSKYVYFFEACRLLQKMIDISLDGFLLTPVQKICKYPLQLAELLKYTHPQHRDFKDVEAALHAMKNVAQLINERKRRLENIDKIAQWQSSIEDWEGEDLLVRSSELIYSGELTRVTQPQAKSQQRMFFLFDHQLIYCKKDLLRRDVLYYKGRLDMDGLEVVDLEDGKDRDLHVSIKNAFRLHRGATGDSHLLCTRKPEQKQRWLKAFAREREQVQLD” the protein production was “not failed”.
In the case of “GSSGSSGDKKAYFYHSSFQILNVEYTEALNSPATHEYRTLSERIEAMITDEFRGSSLKSEFIRTHVVKLRKEGTGVVADVVMKFRSSKRNNRKVMKTRIQSVLRRLSSSGNLEIAPSNEITSLTDQDT”, the protein production is reported as “not failed”.
For “GSSGSSGMSNTTWGLQRDITPRLGARLVQEGNQLHYLADRASITGKFSDAECPKLDVVFPHFISQIESMLTTGELNPRHAQCVTLYHNGFTCEADTLGSCGYVYIAVYPTQR”, the protein production was “not failed”.
With “GVPPSQGDLEYQMSTTARAKRVREAMCPGVSGEGQLALLATQVEGQATNLQRLAEPSQLLKSAIVHLINYQDDAELVTRALPELTKLLNDEDPVVVTKAAMIVNQLSKKEASRRALMGSPQLVAAVVRTMQNTSDLDTARCTTSILHNLSHHREGLLAIFKSGGIPALVRMLSSPVESVLFYAITTLHNLLLYQEGAKMACAGRRAQKMVPLLNKNNPKFLAITTDCLQLLAYGNQESKLIILANGGPQALVQIMRNYSYEKLLWTTSRVLKVLSVCPSNKPAIVEAGGMQALGKHLTSNSPRLVQNCLWTLRNLSDVATKQEGLESVLKILVNQLSVDDVNVLTCATGTLSNLTCNNSKNKTLVTQNSGVEALIHAILRAGDKDDITEPAVCALRHLTSRHPEAEMAQNSVRLNYGIPAIVKLLNQPNQWPLVKATIGLIRNLALCPANHAPLQEAAVIPRLVQLLVKAHQDAQRHVAAGTQQPYTDGVRMEEIVEGCTGALHILARDPMNRMEIFRLNTIPLFVQLLYSSVENIQRVAAGVLCEL” the protein production was “failed”.
With “GYRALSFPDPLDSQPVQAIAFYPSTGSEHLSIIHGYRVEASEDAPIAMGRFPLLLLSHGNTGTPLALHDLATSLARQGFVVVAVVHPGDNDRDHSRLGSLSNLYGRPLQISEAISTALLDPVLAPYLNARQ” the protein production was “not failed”.
For “HAATAAEPPTAPTPPTQPAEGPGGADYRHASVHQWHFGEGAREYWVFTPEQPVPGNAPLVIFLHGWSVMQPDLYRAWIDHIVRRGMVVVYPRYQPDLKTPNAAFLDNAAGALGDALRRLQAGELGVRPRLNQVAYLGHSAGGLLAANLAAASERLK”, the protein production was “failed”.
With “HFLLPFAEIPEQFPASKAVLMEHFYRRMRKRFGYLMTADGKPEGGQWNFDADNRNKLKSPDLLQLPTPLCFDNPVASIKARIERHRIPSIGQVGESLLWPINRAQALSLLAHFCQICLPNFGRFQDAMTAQHPHRWSLYHSRLSFALNSKLLSPREVIEATISAYRAAQGQISLAQVEGFVRQILGWREYVRGMYWSN” the protein production was “failed”.
With “HFPARVKVEPAVDTSRIKVFGPGIEGKDVFREATTDFTVDSRPLTQVGGDHIKAHIANPSGASTECFVTDNADGTYQVEYTPFEKGLHVVEVTYDDVPIPNSPFKVAVTEGCQPS” the protein production was “not failed”.
In the case of “HFPINTLLLMRATTGVQLRLPERFGEFLDCLFRALWVDKRNLNDPATITQVLEQGGFDPQQILDLSNDEEVKAALKDKTEQALQKGVFGAPSMFVGDELFFGQDRLDFVREALNA”, the protein production is reported as “failed”.
In the case of “HGTGKQTNALADYWTSEFVNSVRQGIPVPNNYTVINCDFDQYMWEEAAAGCLATQLNSFIQAKNIDDLILLTHSNGGNVVRWILSNPTWDSRYPAVINATSKVIALAPSSGGTPLADAVNQGNVFETTLGWLLGYGSNAVKQQQVGWMAHYNNTWLFGTAGRPRLGKPFEVVVGSDVDSAIWDSDSYCAGYQYQVALETTQNWLDSCSDGFLNCSSQKAAGTVWFTDKQKTRGQEPLSHQQSRRACFNLDTL”, the protein production is reported as “failed”.
With “HIDLFDLDVEEPNDRIFIKGEAEEWPAYRKVPEVRENCNACGVCKDVCQYSAIYVIDKAYPLPELCHSCGACIYLCPEKAMEEVDYQTGKIVRVKSDITLTYGEMRIGEASAVFLIKQVKELMGKNAIIDSPPGASCPMVESVSDADYVILVAEPTPFGLHDLKIAAEVVSDLGLKFGVVVNKHGLPFDGIERYCKEGGVEILGKIPFSKEIAEKYSRGELLHDMKDFFVQLYEG” the protein production was “failed”.
For “HLHLRVKLLDNTMEIFDIEPKCDGQVLLTQVWKRLNLVECDYFGMEFQNTQSYWIWLEPMKPIIRQIRRPKNVVLRLAVK”, the protein production was “failed”.
For “HPKLVSSTPAEGSEGAAPAKIELHFSENLVTQFSGAKLVMTAMPGMEHSPMAVKAAVSGGGDPKTMVITPASPLTAGTYKVDWRAVSSDTHPITGSVTFK”, the protein production was “not failed”.
In the case of “HPLLAGIPFRQLARPLMQDLAYSVRGTVSIGLLDGPSVVYVETARSGDVGPHTPDIGMPIPVVRTAMGRAAASTLPEAEAERLDRQLEAADGAMWASHRDLYRDGLRQCAERQFCTCFGDYLPAIHAVAAPLFRQRDRSFAINCGIPAFRLQPGQLEDEIGPRVRALAESIRALGVDPE”, the protein production is reported as “failed”.
With “HQPNIIPYHKGFYRAFSKLHTTTFKYQAQSPQDIIDSLDDHHHLFLFVSEGLLKGYLYLEIDSQQSIAEIKYFSSHVDYRLKGIAFELLAYALQYAFDNFDIRKVYFKIRNKNNKLIERFNGLGFHINYEYIKFKFESRNVKDQTIPE” the protein production was “failed”.
In the case of “HVETIKNTFLNPKSNKVLVVAHRGNWRSAPENSTAAIDSAIAMKVDIVEIDIQKTKDGQLILMHDNTLDRTTTGKGEIKNWTLADIKKLKLKDKDGKVTNYVVPTLEEALLTAKGKIMVNLDKAYDIFDDVYAILEKTETQNQVIMKGGQPIETVKREFGSYLDKVLYMPVIDLGNKEAEKIITDYLKELRPAAFEIIYSDPKNPLPPKIKQLLFKKSLIWYNTLWGSLAGNHDDNLALTDPEKSYGYLIEQLGARILQTDQPAYLLDYLRKKGWHN”, the protein production is reported as “not failed”.
With “IAALSRDITPQQDGSVIVDASITIRHLNRMMGWSLPLIGPRTLSGLIIEHLGYIPPPDSCLVIDHYHIEILRVSDNMIRGVKMIKTN” the protein production was “failed”.
In the case of “IDIEAMLGSVFDAMEPELDFTGEARNMDEARGQVRSFRSLEVPRVLHASPRVLVQSLADGKSVRHVDRAHFTDDERVEIGKDLLRFMYHGYFVHRFFHADPHAGNVFAAPGGPATLIDWGMVGRLD”, the protein production is reported as “failed”.
In the case of “IDSGLSPSVLMASNSGRRSAPPLNLTGLPGTEKLNEKEKELCQVVRLVPGAYLEYKSALLNECHKQGGLRLAQARALIKIDVNKTRKIYDFLIREGYITKA”, the protein production is reported as “not failed”.
For “IEDCWLAYATAGTLNEDKSNAILIPTWYSGTHQTWFQQYIGTDHALDPSKYFIISINQIGNGLSVSPANTADDSISMSKFPNVRIGDDVVAQDRLLRQEFGITELFAVVGGSMGAQQTYEWIVRFPDQVHRAAPIAGTAKNTPHDFIFTQTLNETVEADPGFNGGEYSSHEEVADGLRRQSHLWAAMGFSTEFWKQEAWRRLGLESKESVLADFLDPLFMSMDPNTLLNNAWKWQHGDVSRHTGGDLAAALGRVKAKTFVMPISEDMFFPVRDCAAEQALIPGSELRVIEDIAGHLGLFNVSENYIPQIDKNLKE”, the protein production was “failed”.
For “IFIGNLDPEIDEKLLYDTFSAFGVILQTPKIMRDPDTGNSKGYAFINFASFDASDAAIEAMNGQYLCNRPITVSYAFKKDSKG”, the protein production was “not failed”.
With “IFLDSNMSLDVVWHVYSNMMSPEIEQFSNSVPKSPIRELLELEPETAKFGKPEKLADGRRVRVTVDVFCKGTFRGIGRNYRIAKCTAAKCALRQLKKQGLIAKKD” the protein production was “failed”.
For “IGNVQYYLGFNLYDSRTKITKYDNEVGLLGKDSDDNLIYRKGMELGEIWGYTTDRLYTTEDFDSQGKLKNNIPKVEGYNPNPGDILYVDFDGNGIINNGKNTSNEPGDTRIIGNDTRRYQYGIRGGATWKGISLSFILQGVGKRDLWLMNELFYPHYDAYSTLFDSQLNYWTPEHTNSYFPRLYEKAEGNTKANQKPQTRFLQNGAYLSIRNISLSYTFPIKLIKPLGITNLSVFFGGENLFTFDHLPKGIDAERVVTDNLGQRGFTYPYMRQFSFGINLSL”, the protein production was “failed”.
With “IHFTTEVITSRIEPANRYVAEKLRITPGQDILYLERLRSIGDEKAMLIENRINIELCPGIVEIDFNQHNLFPTIESLSKRKIRYSESRYAARLIGNERGHFLDISEDAPVLHLEQLVFFSRELPVEFGNVWLKG” the protein production was “failed”.
For “IIAKKTNDIQQDIILHSEFANRHGLIAGATGTGKTVTLKVMAESFSRIGVPVFLADAKGDVSSIAKAGSDNPKFDARIKSLGIESIPFAASPTIFWDLFGEQGHPIRTTISEIGPLLLAQMLNLNDTQEGVLSALFRIADDQGLLLIDFKDLKAMLSYVSENAADLKAEYGNLSPASIGAIQRNLLALGDQGGEQFFGEPSLNILDFIQTDSNGHGYINVLAADKLMNTPKLYATFLLWMLSELFEQLPEVGDLDKPKLVFFFDEAHLLFDNASPALQQKIEQVVRLIRSKGVGIYFITQNPLDLPESVLGQLGNRVQHALRAFTPKDQKAVKTAADTFRANPEFKVDQAITELAVGEALISCLDEQGTPQIVERGWVMPPYSSFSPLSPQERQAFMAQSIVAGVYENAVDRDSAYEMLQRKVNESTAQQQAQAEAKQQEANAKQQAKEQERLAREQQKAEEKAQRDREKLTQDVIGTFAKSAARTLGGPTGQKLVRGLLGSLFGKR”, the protein production was “failed”.
With “ILARTKIFPWFFDLKRNKMLIDAHWFSYLGIPAGDCEITIEKFFSRVHPNERDMLADALQKQLSEKEIPDSFSYRLQRGDGSWEWFSEQSMYLSKTNDGSPYRIVGVCHSIQEHKNT” the protein production was “failed”.
With “ILWSQFLKFKEMELPAKEADKNRSKGIYQSLEGAVQAGQLKVPPGYHPLDVEKEWGKLHVAILEREKQLRSEFERLECLQRIVTKLQMEAGLCEEQLHQADALLQSDIRLLAAGKVPQRAGEVERDLDKADSMIRLLFNDVQTLKDGRHPQGEQMYRRVYRLHERLVAIRTEYNLRLK” the protein production was “failed”.
In the case of “IRQARDLLVASMRNPPSLELLAQKTGLNVRKLNLGFRRMYRATAYGFLQEYRLEQAYKLISSGEMSVSQAAYHVGYGAAHFATVFRKRFGVSPSRLR”, the protein production is reported as “failed”.
In the case of “ISPGAAGGAEDGFFVPPTKGTSPTQIWCNNSQLPVDHILAGSFETAMRLLHDQVGVIQFGPYKQLFLQTYARGRTTYQALPCLPSMYGYPNRNWKDAGLKNGVPAVGLKLNDLIQRLQLCYQLTTVGKFEEAVEKFRSILLSVPLLVVDNKQEIAEAQQLITICREYIVGLSVETERKKLPKETLEQQKRICEMAAYFTHSNLQPVHMILVLRTALNLFFKLKNFKTAATFARRLLELGPKPEVAQQTRKILSACEKNPTDAYQLNYDMHNPFDICAASYRPIYRGKPVEKCPLSGACYSPEFKGQICRVTTVTEIGKDVIGLRISPLQFR”, the protein production is reported as “failed”.
